From publication doi:10.1101/2023.06.15.545061

Biological target: biotinylated 10-mer C-terminal PBM peptide of DGKζ (human) (UniProt Q13574)
Sequence (Q13574 whole entry, looked up, tested part not stated): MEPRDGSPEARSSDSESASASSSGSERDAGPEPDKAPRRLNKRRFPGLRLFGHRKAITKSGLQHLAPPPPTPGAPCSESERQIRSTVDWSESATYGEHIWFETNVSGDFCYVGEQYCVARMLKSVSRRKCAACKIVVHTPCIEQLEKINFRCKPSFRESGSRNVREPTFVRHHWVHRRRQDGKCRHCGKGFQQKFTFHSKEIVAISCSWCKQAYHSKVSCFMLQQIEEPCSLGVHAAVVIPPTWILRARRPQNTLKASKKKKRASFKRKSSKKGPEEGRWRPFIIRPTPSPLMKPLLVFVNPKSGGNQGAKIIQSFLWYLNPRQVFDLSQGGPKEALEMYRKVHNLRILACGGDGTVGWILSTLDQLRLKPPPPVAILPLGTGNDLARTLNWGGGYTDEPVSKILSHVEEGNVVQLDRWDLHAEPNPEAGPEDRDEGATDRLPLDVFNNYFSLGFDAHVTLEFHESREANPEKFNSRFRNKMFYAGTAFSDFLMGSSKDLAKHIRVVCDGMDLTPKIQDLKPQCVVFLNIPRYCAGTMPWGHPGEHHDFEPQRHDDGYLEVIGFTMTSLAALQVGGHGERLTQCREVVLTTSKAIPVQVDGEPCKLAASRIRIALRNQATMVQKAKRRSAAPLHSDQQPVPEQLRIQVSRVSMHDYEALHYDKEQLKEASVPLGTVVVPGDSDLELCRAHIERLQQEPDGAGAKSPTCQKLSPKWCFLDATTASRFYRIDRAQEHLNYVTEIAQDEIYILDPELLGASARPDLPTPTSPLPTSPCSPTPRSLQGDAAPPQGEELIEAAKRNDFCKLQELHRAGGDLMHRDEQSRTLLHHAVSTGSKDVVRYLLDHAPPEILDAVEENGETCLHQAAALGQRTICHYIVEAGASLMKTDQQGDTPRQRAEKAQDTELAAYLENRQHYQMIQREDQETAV

Substance: SCRIB
- Kd: 24 µM
